The supplement of paper PMC10266784

B1: library; numbered along this chain (parent)
chain: MAAAAAAAAEQQSSNGPVKKSMREKAVERRSVNKEHNSNFKAGYIPIDEDRLHKTGLRGRKGNLAICVIILLFILAVINLIITLVIWAVIRIGPNGCDSMEFHESGLLRFKQVSDMGVIHPLYKSTVGGRRNENLVITGNNQPIVFQQGTTKLSVENNKTSITSDIGMQFFDPRTQNILFSTDYETHEFHLPSGVKSLNVQKASTERITSNATSDLNIKVDGRAIVRGNEGVFIMGKTIEFHMGGNMELKAENSIILNGSVMVSTTRLPSSSSGDQLGSGDWVRYKLCMCADGTLFKVQVTSQNMGCQISDNPCGNTH

Variants of: B1
Assay: SGCB cell-surface expression functional score (HA stain, bin4 vs bin1, normalised to synonymous) (log10 ratio); higher = more cell-surface SGCB (functional)
Method in brief: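 The functional score is a log ratio of variant frequency in the highest versus the lowest intensity bin, expressed as a median over codons and duplicate transductions. Codon-saturation libraries of HA-tagged, YFP-fused human beta-sarcoglycan were transduced by lentivirus at MOI <0.1 into HEK293 cells stably expressing alpha-, gamma- and delta-sarcoglycan, and the cells were stained on ice with Alexa Fluor 647 anti-HA, fixed and sorted into four 5% intensity bins before amplicon sequencing. Synonymous variants were scaled to mean 0, SD 0.5 within each section.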

SGCB cell-surface expression functional score (log10), by site and new letter:
S279: V 0.21 | P 0.24 | G -0.07 | K -0.05 | D 0.24 | M 0.56 | R 0.16 | Q -0.19 | C 0.08 | A 0.39 | N 0.15 | L 0.22 | T 0.09 | H -0.04 | W -0.2 | I -0.06 | Y 0.05 | E 0.22 | F -0.13
T266: V 0.35 | Y 0.19 | I 0.26 | S 0.4 | M 1.39 | C 1.12 | W 0.59 | P 0.54 | Q 1.04 | D 0.4 | H 0.55 | E 1.22 | R 0.23 | K 1.15 | N 0.54 | G 1.23 | A 0.63 | L 0.47 | F 0.7
S272: G 0.1 | F 0.1 | D -0.3 | W -0.13 | Q 0.34 | K 0.11 | R 0.18 | V -0.14 | Y -0.29 | E 0.23 | T -0.52 | N 0.08 | H -0.05 | C -0.03 | A 0.37 | L 0.07 | M -1.59 | P 0.21 | I 0.34
T265: S 0.4 | N 0.79 | C -0.3 | L 0.73 | K 0.32 | A 0 | E 0.2 | Q 0.21 | M 1.41 | V 0.52 | I 0.58 | D 0 | R 0.4 | W 0.38 | G 0.47 | F 0.68 | H 0.75 | Y 0.55 | P 0.25
G274: K -0.77 | P -0.32 | R -0.37 | L 0.03 | Y 0.47 | D -0.37 | E -0.62 | V -0.14 | Q -0.28 | A -0.37 | M -0.11 | C -0.61 | I 0.31 | F -0.16 | T 0.16 | H -1.17 | N -0.16 | S 0.17 | W -0.13
P269: T 0.41 | A -0.23 | R 0.75 | M -0.48 | K 0.01 | E 0 | I 0.5 | F 0.8 | D -0.09 | Q 0.32 | W 0.56 | V 0 | H 0.32 | N 0.54 | Y 0.73 | G 0.44 | C 0.49 | L 0.23 | S 0.18
D275: H -0.97 | C -0.13 | T -0.08 | E -0.21 | M 0.18 | Y 0.17 | V 0.12 | I -0.42 | K -0.82 | F -0.57 | P -1.24 | W -0.16 | R -0.53 | Q -1.58 | L -0.13 | G 0.01 | S -0.06 | A -0.05 | N -0.12
L268: N 0 | C -0.57 | M 0.61 | R 0.02 | E -0.13 | H 0 | P -0.02 | Q -0.01 | Y -0.02 | G -0.22 | V 0.2 | W 0.53 | S 0.48 | A 0.63 | T -0.02 | D 0.78 | K -1.12 | F 0.46 | I 0.38
V263: W 0.52 | Y 0.3
L277: G -0.19 | K -1.8 | I 0.41 | F -0.4 | H 0.19 | P -1.21 | M -0.2 | R -0.27 | V -0.49 | C -1.31 | S -0.88 | E 0.02 | N 0.08 | Q -0.65 | A -0.39 | W 0.44 | T 0.24 | Y -0.12 | D -0.09
G280: R -0.45 | W -0.37 | F 0.08 | Y -0.23 | E 0.02 | C -0.75 | H 0.05 | S 0.11 | K 0.07 | P 0.06 | I 0.26 | A -0.01 | M 0.03 | T -0.11 | Q -0.26 | L -0.28 | N 0.37 | D -0.56 | V 0.01
S271: E -0.22 | W -0.22 | H -0.19 | K 0.11 | M -0.03 | Y -0.26 | D -0.12 | C -0.06 | F 0.35 | I -0.19 | P -0.56 | R -0.24 | N 0.21 | L 0.07 | V 0.17 | Q -0.08 | A 0 | G 0.33 | T 0.3
G278: A 0.15 | D 0.31 | L -0.05 | T 0.14 | N 0.05 | R 0.05 | E 0.27 | P 0.23 | K 0.27 | F 0.12 | Q 0.09 | M 0.18 | I 0.08 | V 0.32 | S 0.15 | C 0.13 | W 0.16 | H -0.29 | Y 0.08
D281: L 0.08 | C -1.63 | E 0.11 | A -0.2 | I -0.27 | K 0.25 | M 0.67 | H -1.11 | F 0.45 | G -0.06
S270: H 0.54 | C -0.02 | L 0.64 | G 0.32 | M 0.77 | Q 0.47 | E -0.45 | N -0.08 | A 0.44 | D 0.32 | R 0.24 | Y 0.41 | T 0.45 | F 1.1 | V 0.24 | P 0 | I 0.33 | K -0.13
Q276: I 0.1 | Y 0.02 | W -1.29 | C -1 | F -0.23 | P -0.4 | D 0.34 | S -0.37 | E 0.14 | N -0.22 | L -0.3 | T -1.1 | G 0.24 | A -0.49 | R -0.17 | H -0.07 | V -0.56 | K 0.11 | M 0.2
S273: T -0.52 | I 0.05 | N 0.34 | D -0.07 | F -1.31 | K -0.55 | P -0.33 | Y 0.11 | R -0.14 | Q -0.2 | C -0.58 | H -0.82 | G -0.18 | M -1.46 | A -0.68 | V -0.79 | L -0.2 | E 0.08 | W 0.09
R267: S 0.28 | I -0.11 | P -0.19 | G 0.49 | T -0.49 | V 0.49 | C 0.16 | W -0.83 | H 0.05 | Y 0.2 | D -0.54 | F 0.59 | A 0.63 | L -0.05 | Q -0.244 | E -0.053 | M -0.73 | N 0 | K 0.76
S264: W -0.2 | H 0.22 | G 0.23 | R 0.03 | Y 0.34 | V 0.6 | P 0.06 | Q 0.39 | K 0.5 | D 0.96 | M 0.69 | I 0.34 | L 0.68 | A 0.51 | C -0.1 | T 0.31 | N -0.3 | F 0.58 | E 0.53
